Values joined by “and” are separate entries in the source; they are usually repeats but may differ in a detail not shown here. Equal entries are not always repeated. Positions of bridges follow the written chain, without caps; N, C: chain ends. Non-standard residues stand in square brackets, D forms with d. βAla = NCCC(=O)O
Target: Keap1-Maltose Binding Protein (MBP tag), Q14145
Experiment: TR-FRET competition vs ETGE-biotin; grade band per paragraph 615

Keap1-Maltose Binding Protein (MBP tag), Q14145, sequence (Q14145 321-609 limits assumed): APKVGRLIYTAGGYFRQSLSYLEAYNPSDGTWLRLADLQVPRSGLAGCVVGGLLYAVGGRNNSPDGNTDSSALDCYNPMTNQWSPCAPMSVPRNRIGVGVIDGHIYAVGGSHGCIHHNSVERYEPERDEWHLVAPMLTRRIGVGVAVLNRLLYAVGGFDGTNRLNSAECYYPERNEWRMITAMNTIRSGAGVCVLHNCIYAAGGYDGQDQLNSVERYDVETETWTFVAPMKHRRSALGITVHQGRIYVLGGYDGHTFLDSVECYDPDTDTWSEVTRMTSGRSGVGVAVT

B1: {[Stearyl-βAla-Leu-Gln-Cys(&1)-Asp-Pro-Glu-Thr-Gly-Glu-Cys(&2)-Leu-Pro-βAla-Arg-Lys-Lys-Arg-Arg-Gln- (peptide)
peptide: Stearyl-[βAla]LQCDPETGECLP[βAla]RKKRRQRRR-NH2
modifications: bridge 4-11; not fully specified (bridges); also: Cys4 and Cys11 cyclised, linker not given here
B1 was tested, and the IC50 was < 100 nM and > 1 nM.

— patent publication US20200255478A1, “NOVEL COMPOUNDS ACTIVATING THE NRF2 PATHWAY” (Almirall, S.A., priority 2017, published 2020)
